Data on 6 sequences can be found in the DeepSol protein solubility set.

A short description of the data set: soluble on expression in E. coli; label from the status in PepcDB or PDB records.
For the sequence “MATASADTLCSQQEDESWGNLMLHGFQVEAYKPVRVGDKVCYSFYLKNTGSSDVTLGKKGVYLHTNDGDLSSNSGATISPGKSIFVKDCFIASSSGEWTTYPGVCIITAKGEFCHNFETSCTFDVFIECPENWNCMTAEDASQGNYIRYSDELCGYTITGFTAMNKVRCTATEKLLNALQALGV”, the “soluble on expression in E. coli” value is “not soluble”. With “MTSAHDIDLQQILTDRLTGASPDLLRELLTMFIHTLMGAEADALCGAGYGQRSEERTNSRNGYRHRDFDTRVGTLDVAIPKLRSGSYFPDWLLERRKRAEKALTTVVATCYLLGVSTRRMDRLVDTLGITGLSKSQVSVMAKDLDTQVEAFRSRPLDTGPYTFVAADALVLKVRENGRVVNVHTLVAVGVNAEGYREILGVDVTSSEDGAGWLAFFRSLVARGLGGVRLVTSDAHAGLVAAIGGTLPGASWQRCRTHYSTNLMAVTPKASWPWVKTLLHSVYDQPDADSVHAQYDRIIGALSEKLPRVADHLDAARPDLLAFTAFPKQIWKQIWSNNPQERLNKEIRRRTDVVGIFPDRTALIRLVGAVLAEQHDEWIEGRRYLGLDVLARSRNDKPTDSSTESTEEVTPALTA”, the “soluble on expression in E. coli” value is listed as “not soluble”. As for “MLSKKELAIITFLIHHKEQFVSSATLAEVIGMSDRTVRKYLKELISSLPEHGAHIISKQGRGYCLEIDHSMAFDIFWQESVTSKKRLADVTQVEESVDREDYVLHKFFFEDAVQDFEELCQELYISRTTLKHVLAGIKERIIPYQLELEITHQHIQIRGKEEDIRHFIMDYFFVTSFDNTLSTMVGNTFLEGINFAEIMIIVLDECRDAKLKLSDFVMNNLVLHIALMVQRIRSGCPLELFSIPIAIRQSDEYQVALRILYRVEEVMGIRFPKEEANYIALHLKVKHSVGKHWQDDNTDEKLQDHLKACIAKISQLTGMTLETDTNLFQGLLAHMMPLTIRLENHIQLTNPLTEEIKSQYPEIFTLTKQTFSDLLVCQKNDVSDDEWAYISLHLMAAIERYSNRHKLRVLVVCATGYGSAMMLKNRLEKEFEGRLRIVDVISYYEITEERLKTVDLIISSISLANLMFLTPVITVSVFLSNQDIETIRQFIGEQEGIKKEVSLPSQMSLAKAEQLLTGVFSPNRFLYLDEKISKEDLLLRMIACLDEAGTETFVEDFYHQMVLRENYSPVIYGEVLAFPHPANPMTYSEQVVVVICREPLEWDKAHQAVHFVFLLSPSKGHNHRLKYVSPGLASFVNQVELQQALLEEPNYSKFMTVFTPLIHD”, the “soluble on expression in E. coli” value was “not soluble”.

As to “MLTGRESLLRLIGKRRRFLPNRHLLLSAHTPNSLNLEFNDYGNLVSLAGDDCRLSEDPTSSDDPSKFSDDLSLSTRKKRRLTQTTLLQSSFLSVPKQLEDGLVICTQQKSILDSETFEFSLVQRSEPSESICCKVEDGSCSPSREESLKTVTLDEDNGEAIETFIVGRKFSDVQDLEIGGDIFLLRHPENVKDRNAIKVISGDSEMLGYLPKDISQCLSPLIDDYDLKFEGTITSVPKKSSEAVLIKVVCHKMRSDGWKECELYGDFKPLWEKVLQVVEHQMQFPPKTTRYQLNFNVLLQEVLRSCSHLFTADEKAFLESFPTLSEDSQRLFIRLYTRKGPWFRLSNISYPEVTDSLQALKDLTVRGFMSSVKDANELDNQKMKEITELLNVTELRDILSMNKVFSRTSRKRDLINSLCSCYNDGTRINLATVILERTGLCAKVSSTAESLIWRVERLFFLNGEQDLSSFVLLDLGIIKYPTYKCIDSEQIFSNRTKLLAYEEAIEVAQLMDESLDNEDPQTVLKCIIIAETRISSSSLDSAHAAAFNRFTAPWVNSKVVLLGVSFFENQKRYNRAVYLLRRLLSCFNCDGRRGYWTVRLSTDLEHMGRPNESLTVAEQGLLDPWVRAGSRVALQRRILRLAKPPRRWKTPTFSNLVDNKIPEVTIQGRSLNCEVGIKNRFYGEDGEQCGVEQLALQYYSGEGGGWQGIHTESSIWLTIFGLLMWDILFSDVPGVFQTRFQVNETQ”, the “soluble on expression in E. coli” value is recorded as “not soluble”.

For the sequence “MSLGKRLKEARQKAGYTQKEAAEKLNIGNNNLSNYERDYRDPDTDTLLKLSNLYNVSTDYLLGKDEVSKKNETDLLNKTINEAIQELKDEDTLLFMNDGEFDEETARLVKKALKNGIKFIDELKKKE”, the “soluble on expression in E. coli” value is given as “not soluble”.

As to “SMRSGSSMKEEPLGSGMNAVRTWMQGAGVLDANTAAQSGVGLARAHFEKQPPSNLRKSNFFHFVLALYDRQGQPVEIERTAFVGFVEKEKEANSEKTNNGIHYRLQLLYSNGIRTEQDFYVRLIDSMTKQAIVYEGQDKNPEMCRVLLTHEIMCSRCCDKKSCGNRNETPSDPVIIDRFFLKFFLKCNQNCLKNAGNPRDMRRFQVVVSTTVNVDGHVLAVSDNMFVHNNSKHGRRARRLDPS”, the “soluble on expression in E. coli” value is listed as “soluble”.
